Measured values published in publication PMC7092807 (Biochemical and Biophysical Research Communications, 2004).

Biological target: the molecule itself
Assay: SEC

B1: SARS-CoV soluble S ectodomain (Se) (domain or fragment)
chain: not shown
- stoichiometry N: 3
